# Results reported in patent publication US20230312671A1 (ST JUDE CHILDREN S RESEARCH HOSPITAL, published 2023).
# Where no end group is shown, it is not given here. The star is where a group is joined. Biotin = O=C1N[C@H]2[C@H](CS[C@H]2CCCCC(=O)*)N1; Ahx = NCCCCCC(=O)O
# Molecular target: T1, Glucose-regulated-protein 78 (GRP78), cell surface (UniProt P11021 19-654, limits assumed)
# T1 construct: whole, on cells; The target was endogenous GRP78 on human tumour cell lines; No recombinant GRP78 was used; also called BiP; HSPA5
# Assay: flow cytometry on AML and solid tumor cell lines, Streptavidin PE detection
# Description: Anti-KDEL antibody for detection of cell surface GRP78 (Abcam, Clone-10C3; Cat. No. ab115638) and Streptavidin PE (BioLegend, San Diego, CA. Cat. No 405204 were used for flow cytometric analysis. A GRP78-binding peptide ([…] (SEQ ID NO: 1)) with an N-terminal Biotin tag (Biotin-Ahx-[…] (SEQ ID NO: 71)) was obtained from Genscript). The following antibodies purchased from BD Biosciences were used for flow cytometry: CD4, CD8, CCR7 FITC, CD45RA APC, CD19 APC, CD19 PE, CD8 APC-H7, CD4-KrO, TIM3 PE-Cy7, LAG3 PE, and PD1 BV605. Recombinant Human ErbB2/Her2 Fc Chimera Protein (R&D Systems, Cat. No 1129-ER) was used to detect HER2 CAR. Half a million Transduced and Non-Transduced T Cells were washed with 1×PBS and the cells were incubated with 3 μL of antibody and Fixable Live Dead aqua stain (Thermo Fisher Scientific, L34965) on ice and protected from light for 30 mins. Cells were washed with 1×PBS+2% FBS. FACS was carried out using FACS Canto II or Lyric (BD Biosciences). The analysis was performed using FlowJo 10.5.3 software (BD Biosciences, San Jose, CA).
# T1 sequence (P11021 19-654 limits assumed): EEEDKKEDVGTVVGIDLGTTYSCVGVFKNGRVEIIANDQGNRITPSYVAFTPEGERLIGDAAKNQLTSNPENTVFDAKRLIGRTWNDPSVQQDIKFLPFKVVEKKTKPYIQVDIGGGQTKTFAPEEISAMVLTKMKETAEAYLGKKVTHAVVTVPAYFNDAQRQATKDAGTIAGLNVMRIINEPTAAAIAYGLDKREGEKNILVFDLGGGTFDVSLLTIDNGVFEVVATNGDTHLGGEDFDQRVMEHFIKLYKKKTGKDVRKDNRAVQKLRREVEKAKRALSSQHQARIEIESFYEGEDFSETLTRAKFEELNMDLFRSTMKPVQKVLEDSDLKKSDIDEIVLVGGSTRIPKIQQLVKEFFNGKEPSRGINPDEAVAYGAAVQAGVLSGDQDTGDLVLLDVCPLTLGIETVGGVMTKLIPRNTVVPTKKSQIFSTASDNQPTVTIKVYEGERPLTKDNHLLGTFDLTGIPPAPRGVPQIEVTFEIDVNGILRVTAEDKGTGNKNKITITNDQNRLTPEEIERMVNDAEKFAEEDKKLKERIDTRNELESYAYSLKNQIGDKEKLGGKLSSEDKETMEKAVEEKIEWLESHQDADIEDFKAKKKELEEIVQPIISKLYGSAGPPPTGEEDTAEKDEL
binder,measurement,value
"{Biotin-Ahx}-CTVALPGGYVRVC (cysteine pairing not given here, Synthetic 13-mer from Genscript, detected with Streptavidin PE in flow cytometry; also called biotin-conjugated peptide) [biotin-conjugated GRP78-binding peptide (Biotin-Ahx-CTVALPGGYVRVC)]",binding result,binds
